Five molecules from patent publication US20220177593A1 (published 2022) can be followed below.

The labels stand for the following.
B1: Ab301 (antibody, V domains shown)
VH: EVKLEASGGGLVQPGMSVKLSCTTSGFTFSDYWMEWVRQAPGKGLEWVAEIRNKVNNYATYYGKSVKGRFTISRDDSKSIVYLQMNSIRSEDTGIYYCNTLRLFAYWGQGTLVTVSA
VL: DIVMTQAPLSISVTPGESPSMSCRSSKSLLHRNGITYVYWYLQKPGKSPQLLIYRMSTLASGVPDRFSGSGSETDFTLKINKVEAEDVGIYYCGQLLENPYTFGAGTRLEIK
B2: Ab303 (antibody, V domains shown)
VH: EVQLVESGGGVVQPGRSLRLSCAASGFTFSDYWMEWVRQAPGKGLEWVAEIRNKVNNYATYYGKSVKGRFTISRDNSKNTLYLQMNSLRAEDTAVYYCNTLRLFAYWGQGTLVTVSS
VL: DIQMTQSPSSLSASVGDRVTITCRSSKSLLHRQGITYVYWYQQKPGKVPKLLIYRMSTLASGVPSRFSGSGSGTDFTLTISSLQPEDVATYYCGQLLENPYTFGQGTKLEIK
B3: Ab305 (antibody, V domains shown)
VH: B2 VH with V11L, A23T, A49G, N76D, N79S, T80I, L81A, R89K, A90T, S117A
VL: B2 VL
B4: Ab304 (antibody, V domains shown)
VH: B2 VH with V11L, R16G, A49G, N76E, T80S, R89K, A90T, L112T
VL: B2 VL
B5: Ab302 (antibody, V domains shown)
VH: B2 VH with V11L, Q13K, R16G, R19K, N76D, R89K, A90T
VL: B2 VL

Positions count from the first letter of the chain named.

In one test the target is Axl (human, UniProt P30530 26-449, biotinylated (site not stated)). Description: BLI.
Axl, sequence (P30530 whole entry): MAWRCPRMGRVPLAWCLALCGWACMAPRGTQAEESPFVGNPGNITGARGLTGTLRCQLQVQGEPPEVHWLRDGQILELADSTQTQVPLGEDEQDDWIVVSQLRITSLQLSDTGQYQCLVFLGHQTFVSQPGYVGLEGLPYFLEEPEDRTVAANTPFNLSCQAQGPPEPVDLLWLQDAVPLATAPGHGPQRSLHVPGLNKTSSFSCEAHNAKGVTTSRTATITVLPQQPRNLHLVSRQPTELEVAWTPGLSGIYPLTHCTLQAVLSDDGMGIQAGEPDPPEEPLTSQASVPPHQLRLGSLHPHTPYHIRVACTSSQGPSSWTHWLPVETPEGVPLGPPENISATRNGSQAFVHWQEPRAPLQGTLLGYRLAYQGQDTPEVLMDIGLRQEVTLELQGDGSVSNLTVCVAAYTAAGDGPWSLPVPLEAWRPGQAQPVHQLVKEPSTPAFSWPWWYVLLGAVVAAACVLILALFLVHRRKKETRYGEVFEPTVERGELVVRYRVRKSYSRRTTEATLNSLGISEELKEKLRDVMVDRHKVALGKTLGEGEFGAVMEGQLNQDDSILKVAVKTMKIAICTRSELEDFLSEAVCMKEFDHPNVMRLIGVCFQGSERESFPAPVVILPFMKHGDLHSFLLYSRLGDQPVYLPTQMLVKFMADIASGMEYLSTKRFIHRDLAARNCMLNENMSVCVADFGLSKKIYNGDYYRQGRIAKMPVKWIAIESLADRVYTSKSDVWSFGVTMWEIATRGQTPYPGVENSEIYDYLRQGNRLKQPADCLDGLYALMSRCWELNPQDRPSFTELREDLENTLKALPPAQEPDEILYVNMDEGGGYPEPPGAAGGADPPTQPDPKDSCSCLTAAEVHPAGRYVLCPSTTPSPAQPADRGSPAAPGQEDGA
In turn, B1 displayed a Kd of 0.466 nM.
For the molecule B2, the Kd worked out at 0.386 nM. The Kd values of the last two molecules are within 1.5-fold of each other.
In turn, B3 registered a Kd of 1.55 nM.
Consider B4, for which binding was characterised by a dissociation constant (Kd) of 0.909 nM.
B5 displayed a Kd of 0.705 nM.

In another test the target is human Axl expressed on the surface of cells (human, UniProt P30530 26-894). Briefly: flow cytometry.
human Axl expressed on the surface of cells, sequence (P30530 26-894): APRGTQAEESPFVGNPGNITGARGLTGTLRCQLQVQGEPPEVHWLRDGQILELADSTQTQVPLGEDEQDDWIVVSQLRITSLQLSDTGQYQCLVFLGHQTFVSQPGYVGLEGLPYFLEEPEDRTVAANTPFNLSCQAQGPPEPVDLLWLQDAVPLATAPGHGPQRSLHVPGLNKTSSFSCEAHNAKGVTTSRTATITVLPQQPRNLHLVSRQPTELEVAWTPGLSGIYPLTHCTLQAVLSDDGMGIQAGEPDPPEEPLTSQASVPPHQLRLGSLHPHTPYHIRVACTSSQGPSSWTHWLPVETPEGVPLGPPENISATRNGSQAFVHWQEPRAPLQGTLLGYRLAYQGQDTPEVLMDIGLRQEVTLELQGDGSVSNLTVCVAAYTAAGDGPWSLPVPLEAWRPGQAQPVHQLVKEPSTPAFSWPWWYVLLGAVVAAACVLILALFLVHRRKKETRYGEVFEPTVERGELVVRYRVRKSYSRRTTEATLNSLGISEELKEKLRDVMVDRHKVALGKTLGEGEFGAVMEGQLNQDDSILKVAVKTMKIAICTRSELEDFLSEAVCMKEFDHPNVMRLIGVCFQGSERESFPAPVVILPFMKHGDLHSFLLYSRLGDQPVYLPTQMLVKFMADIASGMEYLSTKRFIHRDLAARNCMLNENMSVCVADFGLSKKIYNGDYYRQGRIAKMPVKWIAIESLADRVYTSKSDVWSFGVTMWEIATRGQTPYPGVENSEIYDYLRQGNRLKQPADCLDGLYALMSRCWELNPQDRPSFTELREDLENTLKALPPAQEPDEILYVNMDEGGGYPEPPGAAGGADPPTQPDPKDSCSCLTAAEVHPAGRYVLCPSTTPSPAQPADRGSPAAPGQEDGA
Regarding B1, the EC50 was 0.025 µg/mL.

For the next test, the target named is recombinant human Axl-msFc (human, UniProt P30530 26-449). Description: ELISA; 4-P fit parameter C.
recombinant human Axl-msFc, sequence (P30530 26-449): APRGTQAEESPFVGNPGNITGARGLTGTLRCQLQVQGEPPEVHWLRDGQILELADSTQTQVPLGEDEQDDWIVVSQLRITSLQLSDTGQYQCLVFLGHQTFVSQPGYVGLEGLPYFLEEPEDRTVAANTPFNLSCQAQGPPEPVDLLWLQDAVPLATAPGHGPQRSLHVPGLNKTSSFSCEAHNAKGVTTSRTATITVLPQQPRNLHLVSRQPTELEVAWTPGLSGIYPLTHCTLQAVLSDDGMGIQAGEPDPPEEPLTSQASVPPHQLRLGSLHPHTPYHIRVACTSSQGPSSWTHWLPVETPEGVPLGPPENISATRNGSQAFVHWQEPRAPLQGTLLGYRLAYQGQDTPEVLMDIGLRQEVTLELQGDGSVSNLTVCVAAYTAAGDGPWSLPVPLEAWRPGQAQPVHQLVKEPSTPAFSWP
For B1, the EC50 is 0.019 µg/mL.
For the molecule B2, the EC50 was found to be 0.019 µg/mL.
B3: the EC50 is 0.019 µg/mL.
Take B4: the EC50 is 0.018 µg/mL.
As to B5, the EC50 is 0.02 µg/mL.
